Legend:
Saccharomyces cerevisiae [1] = assay: protein stability index of tFT-peptide fusion in wild type (PSI (0-1 scale)); higher = more stable (slower turnover); details: genetic background: wild type
Saccharomyces cerevisiae [2] = assay: protein stability index of tFT-peptide fusion in deletion strain of DOA10 (PSI (0-1 scale)); higher = more stable (slower turnover)
Procedure: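 MPS profiling in S. cerevisiae of two library types built from selected 12-aa C-degron peptides (IN1, IN2, LN1, LN3, VN2, R1-R5, W1-W3, Atg1 and Rpa12 C-termini): saturation mutagenesis libraries and C-terminal +1 capping libraries (13 aa). Each peptide is fused to the C-terminus of a sfGFP-mCherry timer, after a GGGS linker. Cells are FACS-sorted into 8 mCherry/sfGFP bins and sequenced. PSI runs from 0 (unstable) to 1 (stable), measured once in wild type and in the das1Δ or doa10Δ background.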
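For protein stability index of tFT-peptide fusion in deletion strain of DOA10 in this document: PSI per variant is the weighted mean of its sequencing read distribution over the sorted stability bins, counting only variants with over 10 reads summed across bins.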
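For protein stability index of tFT-peptide fusion in wild type in this document: PSI derived as read-weighted mean over the 8 sorting bins, only variants exceeding 10 total reads kept, mCherry placed adjacent to the peptide and sfGFP distal.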

Sequence | protein stability index (Saccharomyces cerevisiae [1]) | protein stability index (Saccharomyces cerevisiae [2])
ALTLPMCPLLLR | 0.21 | 0.646
RVTRYDAIYFRI | 0.332 | 0.603
AITLPMNPLLLR | 0.392 | 0.685
CLVSLPILLFFA | 0.256 | 0.346
GLYWCSVGCWFR | 0.246 | 0.646
RSLIVLLPLYFR | 0.288 | 0.597
GLYMCSVGCCFR | 0.611 | 0.651
RVTRLDAIYCRI | 0.621 | 0.696
WSLRVLLPLYFR | 0.269 | 0.636
GLYTCSVGCWFR | 0.392 | 0.682
SVTRLDAIYFRI | 0.363 | 0.716
RSLRVLLPLYFG | 0.452 | 0.591
AIGLPMCPLLLR | 0.297 | 0.653
CLVSLPILLFFRP | 0.068 | 0.563
RSLCVLLPLYFR | 0.247 | 0.616
RSLRVLLPLYMR | 0.326 | 0.696
RVTRNDAIYFRI | 0.552 | 0.694
RVTRLDAIYFRIE | 0.627 | 0.689
GLYMCSQGCWFR | 0.463 | 0.691
GLYMCSVGCWFRA | 0.225 | 0.44
WVTRLDAIYFRI | 0.161 | 0.62
CLISLPILLFFR | 0.0542 | 0.552
AITLPMWPLLLR | 0.124 | 0.673
NSLRVLLPLYFR | 0.357 | 0.662
CLVSLPILLQFR | 0.344 | 0.642
RVTRLDAIYFRM | 0.422 | 0.674
AWTLPMCPLLLR | 0.111 | 0.665
RHTRLDAIYFRI | 0.517 | 0.679

Sequence | protein stability index (Saccharomyces cerevisiae [1]) | protein stability index (Saccharomyces cerevisiae [2])
RVTRLFAIYFRI | 0.177 | 0.409
HITLPMCPLLLR | 0.332 | 0.657
CLVSLPHLLFFR | 0.0749 | 0.67
AITPPMCPLLLR | 0.458 | 0.686
AITLPMCPTLLR | 0.581 | 0.678
AGTLPMCPLLLR | 0.461 | 0.671
AITLPMCPNLLR | 0.645 | 0.672
AITLPHCPLLLR | 0.264 | 0.713
RKLRVLLPLYFR | 0.282 | 0.668
RVTRLDVIYFRI | 0.3 | 0.649
CLVSLPILLFFRS | 0.0709 | 0.533
RVTRLDCIYFRI | 0.367 | 0.647
GLYMCSVGCWRR | 0.62 | 0.662
RSLRTLLPLYFR | 0.455 | 0.686
GTYMCSVGCWFR | 0.344 | 0.675
RVTRLDGIYFRI | 0.389 | 0.567
RSLRQLLPLYFR | 0.466 | 0.68
GLGMCSVGCWFR | 0.336 | 0.674
RELRVLLPLYFR | 0.19 | 0.684
RVTRFDAIYFRI | 0.287 | 0.645
RSLRVLLPCYFR | 0.409 | 0.647
CLVSLPDLLFFR | 0.188 | 0.709
AVTRLDAIYFRI | 0.317 | 0.696
GLYMCSVFCWFR | 0.222 | 0.365
RVTRLDSIYFRI | 0.46 | 0.703
GLYMCSVGYWFR | 0.213 | 0.603
CLSSLPILLFFR | 0.0943 | 0.641
